Measured values reported in paper PMC12170185, “Dynamic RNA binding and unfolding by nonsense-mediated mRNA decay factor UPF2” (RNA, 2024).

Tests used:
[1] = molecular target: T1, UPF2L (near full-length UPF2, residues 121-1227) (UniProt Q9HAU5 121-1227); assay: native gel or EMSA; 250 nM HEX-labelled hp-RNA mixed with the proteins, 1 h on ice; native 4%-20% Tris-glycine gel, 45 min at 150 V, 4°C; HEX label of the RNA detected; RNA diluted in 25 mM HEPES pH 7.45, 100 mM NaCl, 5% glycerol; settings: both partners purified
T1 construct: Construct from Neu-Yilik et al. 2017; also called up-frameshift protein 2; source: E. coli BL21 Rosetta (DE3), purified (Ni-NTA, heparin, SEC)
T1 sequence (looked up): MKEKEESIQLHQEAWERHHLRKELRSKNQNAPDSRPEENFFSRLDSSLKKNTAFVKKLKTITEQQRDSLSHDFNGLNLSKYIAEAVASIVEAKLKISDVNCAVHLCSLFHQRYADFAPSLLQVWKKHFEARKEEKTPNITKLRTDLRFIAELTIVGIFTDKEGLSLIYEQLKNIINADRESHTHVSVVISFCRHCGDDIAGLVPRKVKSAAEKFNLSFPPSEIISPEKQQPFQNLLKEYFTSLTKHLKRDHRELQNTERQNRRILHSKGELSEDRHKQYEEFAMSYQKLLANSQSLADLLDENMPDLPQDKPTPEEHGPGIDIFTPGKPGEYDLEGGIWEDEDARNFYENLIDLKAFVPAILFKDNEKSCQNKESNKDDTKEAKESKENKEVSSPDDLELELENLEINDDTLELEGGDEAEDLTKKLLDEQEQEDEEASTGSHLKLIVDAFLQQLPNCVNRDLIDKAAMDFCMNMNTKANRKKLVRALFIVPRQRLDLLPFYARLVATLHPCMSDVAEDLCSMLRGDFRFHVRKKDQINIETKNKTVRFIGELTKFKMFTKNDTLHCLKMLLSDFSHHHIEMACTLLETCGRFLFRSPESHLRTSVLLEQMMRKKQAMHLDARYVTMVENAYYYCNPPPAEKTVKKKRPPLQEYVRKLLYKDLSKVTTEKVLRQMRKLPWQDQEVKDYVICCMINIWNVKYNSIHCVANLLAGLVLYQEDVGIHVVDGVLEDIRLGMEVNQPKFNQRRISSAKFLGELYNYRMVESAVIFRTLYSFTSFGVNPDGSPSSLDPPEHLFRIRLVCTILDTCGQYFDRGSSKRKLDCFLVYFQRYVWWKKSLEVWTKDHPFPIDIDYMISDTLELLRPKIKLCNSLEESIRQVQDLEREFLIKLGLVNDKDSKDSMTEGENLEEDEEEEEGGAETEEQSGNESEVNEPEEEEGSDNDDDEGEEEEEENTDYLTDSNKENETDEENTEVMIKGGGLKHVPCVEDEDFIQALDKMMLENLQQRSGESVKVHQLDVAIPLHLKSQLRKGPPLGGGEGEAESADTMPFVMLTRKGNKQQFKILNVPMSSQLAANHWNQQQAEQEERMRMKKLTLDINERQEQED

[2] = molecular target: T2, UPF2 MIF4G domain-3 (residues 761-1054) (UniProt Q9HAU5 761-1054); assay: as above; settings: both partners purified
T2 construct: UPF2, third MIF4G domain, residues 761-1054; Construct from Kadlec et al. 2004; TEV site and His6 tag as said for m1; also called MIF4G-D3; D3; source: E. coli BL21 Rosetta (DE3), purified (Ni-NTA, heparin, SEC)
T2 sequence (looked up): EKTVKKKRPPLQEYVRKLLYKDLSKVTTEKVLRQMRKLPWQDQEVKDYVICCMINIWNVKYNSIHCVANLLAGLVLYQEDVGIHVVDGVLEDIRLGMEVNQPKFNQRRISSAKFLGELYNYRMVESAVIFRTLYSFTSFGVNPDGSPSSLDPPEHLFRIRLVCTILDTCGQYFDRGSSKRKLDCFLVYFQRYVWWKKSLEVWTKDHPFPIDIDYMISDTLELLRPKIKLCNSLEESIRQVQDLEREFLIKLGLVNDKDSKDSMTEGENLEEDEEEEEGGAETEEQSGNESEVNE

binding result [1]: binds | binding result [2]: binds
B1: UPF3B (residues 41-262) (domain or fragment, UniProt Q9BZI7 41-262, looked up)
chain: DRNKEKKEALSKVVIRRLPPTLTKEQLQEHLQPMPEHDYFEFFSNDTSLYPHMYARAYINFKNQEDIILFRDRFDGYVFLDNKGQEYPAIVEFAPFQKAAKKKTKKRDTKVGTIDDDPEYRKFLESYATDNEKMTSTPETLLEEIEAKNRELIAKKTTPLLSFLKNKQRMREEKREERRRREIERKRQREEERRKWKEEEKRKRKDIEKLKKIDRIPERDKL
notes: UPF3B residues 41-262: RNA-recognition motif, NOPS-Like domain and the first coiled coil-like domain; source: E. coli, purified as described (Bufton et al. 2022)
